Source: PMC4368798, “Protein-Binding RNA Aptamers Affect Molecular Interactions Distantly from Their Binding Sites”

Tests used:
pro-uPA Y284/127A = pro-uPA Y284/127A (Homo sapiens, UniProt P00749 21-431, Y304A); test: SPR competition; still inhibits uPAR binding (data not shown); SPR: HBS (20 mM HEPES, 140 mM NaCl, pH 7.4), 2 mM MgCl2, 0.1% BSA, 0.005% Tween 20, temperature not stated; SAXS: HBS, 2 mM MgCl2, 25 C; conditions: protein: recombinant; 79 nt
pro-uPA R391/231A = pro-uPA R391/231A (Homo sapiens, UniProt P00749 21-431, R411A); test: as above; conditions: protein: recombinant; 79 nt
ATF of uPA = ATF of uPA (UniProt P00749 21-151); test: SPR competition; inhibition of 4 nM ATF binding to immobilized uPAR; SPR: HBS (20 mM HEPES, 140 mM NaCl, pH 7.4), 2 mM MgCl2, 0.1% BSA, 0.005% Tween 20, temperature not stated; SAXS: HBS, 2 mM MgCl2, 25 C; conditions: protein: commercial; 79 nt
GFD of uPA = biological target: T1, GFD of uPA (Homo sapiens, UniProt P00749 24-63); test: SPR competition; 50 nM aptamer; no inhibition of GFD binding to uPAR; SPR: HBS (20 mM HEPES, 140 mM NaCl, pH 7.4), 2 mM MgCl2, 0.1% BSA, 0.005% Tween 20, temperature not stated; SAXS: HBS, 2 mM MgCl2, 25 C; conditions: protein: recombinant; 79 nt
T1 chain: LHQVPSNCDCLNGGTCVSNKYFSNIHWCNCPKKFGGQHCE

pro-uPA wild type [1] = biological target: T2, pro-uPA wild type (Homo sapiens, UniProt P00749 21-431); test: SPR competition; inhibition of 4 nM pro-uPA binding to immobilized uPAR; SPR: HBS (20 mM HEPES, 140 mM NaCl, pH 7.4), 2 mM MgCl2, 0.1% BSA, 0.005% Tween 20, temperature not stated; SAXS: HBS, 2 mM MgCl2, 25 C; conditions: protein: recombinant; 79 nt
pro-uPA wild type;uPAR [2] = biological target: T3, pro-uPA wild type;uPAR (Homo sapiens;Homo sapiens, UniProt P00749;Q03405 21-431;23-305, |); test: SPR; 100 nM aptamer on captured pro-uPA:uPAR; SPR: HBS (20 mM HEPES, 140 mM NaCl, pH 7.4), 2 mM MgCl2, 0.1% BSA, 0.005% Tween 20, temperature not stated; SAXS: HBS, 2 mM MgCl2, 25 C; conditions: protein: recombinant;recombinant; tags: ;; copies: 1;1
pro-uPA wild type [3] = biological target: T2, pro-uPA wild type; test: competition, 125I-pro-uPA cell binding; U937 cells, 1 h, 4 C; effect lost on prolonged incubation; SPR: HBS (20 mM HEPES, 140 mM NaCl, pH 7.4), 2 mM MgCl2, 0.1% BSA, 0.005% Tween 20, temperature not stated; SAXS: HBS, 2 mM MgCl2, 25 C; conditions: protein: recombinant
pro-uPA wild type;uPAR [4] = biological target: T3, pro-uPA wild type;uPAR; test: SPR competition; 200 nM control RNA; no significant effect on vitronectin binding; SPR: HBS (20 mM HEPES, 140 mM NaCl, pH 7.4), 2 mM MgCl2, 0.1% BSA, 0.005% Tween 20, temperature not stated; SAXS: HBS, 2 mM MgCl2, 25 C; conditions: protein: recombinant;recombinant; tags: ;; copies: 1;1
pro-uPA wild type [5] = biological target: T2, pro-uPA wild type; test: SPR competition; up to 200 nM control RNA; no effect on pro-uPA binding to LRP-1A; SPR: HBS (20 mM HEPES, 140 mM NaCl, pH 7.4), 2 mM MgCl2, 0.1% BSA, 0.005% Tween 20, temperature not stated; SAXS: HBS, 2 mM MgCl2, 25 C; conditions: protein: recombinant

T3 sequence (Q03405 23-305, chain 2 of 2, other chains not shown): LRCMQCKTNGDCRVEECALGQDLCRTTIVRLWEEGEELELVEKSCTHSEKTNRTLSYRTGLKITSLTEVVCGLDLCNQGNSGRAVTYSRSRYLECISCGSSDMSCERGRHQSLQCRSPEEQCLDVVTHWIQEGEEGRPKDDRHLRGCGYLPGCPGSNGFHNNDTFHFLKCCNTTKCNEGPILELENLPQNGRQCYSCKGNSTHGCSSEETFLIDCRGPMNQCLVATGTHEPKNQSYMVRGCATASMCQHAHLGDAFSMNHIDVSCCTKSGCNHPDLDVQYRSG

B1: upanap-12 (XNA)
RNA: GGGGCCACCAACGACAUUUGCGACUGUUAUAACCUAACAGCGACGUAAAGAUAGUUGAUAUAAAUAGUGCCCAUGGAUC
modifications: 2'-fluoro pyrimidines (2'-F-C, 2'-F-U)
- binding result (pro-uPA Y284/127A): binds
- binding result (pro-uPA R391/231A): binds
- IC50 (ATF of uPA): 1.8 ± 0.2 nM
- binding result (GFD of uPA): no binding
- IC50 (pro-uPA wild type [1]): 2.2 ± 0.1 nM

B2: upanap-126 (XNA)
RNA: GGGGCCACCAACGACAUUCAUUCGCACGCUGUGUGGGGAUUAGUCCCGAUGUUGUUGAUAUAAAUAGUGCCCAUGGAUC
modifications: 2'-fluoro pyrimidines (2'-F-C, 2'-F-U)
- binding result (pro-uPA wild type;uPAR [2]): binds
- IC50 (pro-uPA wild type [3]): ~500 nM

B3: control RNA (XNA)
RNA: GGGGCCACCAACGACAUUAACUCACGUUGCAACUAAUACGCUGAGUGGAAACCGUUGAUAUAAAUAGUGCCCAUGGAUC
modifications: 2'-fluoro pyrimidines (2'-F-C, 2'-F-U)
- binding result (pro-uPA wild type;uPAR [4]): no binding
- binding result (pro-uPA wild type [5]): no binding
